# From paper PMC11162469, “Discovery of RXFP2 genetic association in resistant hypertensive men and RXFP2 antagonists for the treatment of resistant hypertension” (Scientific Reports, 2024)
# Key:
# [1] = target: T1, human LDLa-linker protein (huRXFP2-LDLa-linker(38-105)) (Homo sapiens, UniProt Q8WXD0); test: SPR; Biacore S200; goat anti-rat Fc gamma immobilised on a Series S CM5 chip, purified recombinant rat anti-RXFP2 antibodies captured at 5 µg/mL; rat or human LDLa-linker protein flowed as analyte at 20, 10, 5, 2.5, 1.75 and 0 nM; 1:1 fit model; settings: both partners purified
# T1 construct: relaxin family peptide receptor 2 (RXFP2), human, LDLa module and linker, residues 38-105; Expressed as LDLa-linker, enterokinase site, rat Fc, 8xHis; The Biacore methods say only 'LDLa-linker protein'; also called human LDLa-linker domain; source: Expi293, transfected, purified (Histrap excel, SEC); enterokinase digestion, Hispur Ni resin, Superdex 200; not shown: rat Fc, C-terminal, cleaved; …
# T1 sequence (Q8WXD0 38-105): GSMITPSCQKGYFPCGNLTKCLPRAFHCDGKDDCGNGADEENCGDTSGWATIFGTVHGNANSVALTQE
# [2] = target: T2, rat LDLa-linker protein (ratRXFP2-LDLa-linker(20-88)) (Rattus norvegicus, UniProt Q5ECL0); test: as above; settings: both partners purified
# T2 construct: relaxin family peptide receptor 2 (RXFP2), rat, LDLa module and linker, residues 20-88; Expressed as LDLa-linker, enterokinase site, rat Fc, 8xHis; The Biacore methods say only 'LDLa-linker protein'; also called rat LDLa-linker domain; source: Expi293, transfected, purified (Histrap excel, SEC); enterokinase digestion, Hispur Ni resin, Superdex 200; not shown: rat Fc, C-terminal, cleaved; 8xHis, …
# T2 sequence (Q5ECL0 entry or part of it): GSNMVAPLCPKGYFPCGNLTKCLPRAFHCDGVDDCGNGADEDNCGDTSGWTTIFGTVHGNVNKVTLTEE
Binder,binding result [1],Kd [2]
"RXFP2 mAb 3F3 (antibody, V domains shown, heavy chain variable domain; rat IgG2b heavy chain constant region (rat IgG2b backbone, in-house construct); Recombinant in a rat IgG2b backbone; found as a mouse hybridoma clone; source: Expi293, transfected, purified (Protein G)) VH: QVQLQQPGSVLVRPGASVKLSCKASGYIFTSYWMHWVKQRPGQGLEWIGEIYPNSGRTSYNEKFKGKATVTVDTSSSTAYVDLSSLTSEDSAVYYCASGGHWFAYWGQGTLVTVSA VL: DIQMTQSSSSFSVSLGDRVTITCKASEDIYNRLAWYQQKPGNAPRLLISGATSLEAGVPSRFSGSGSGKDYTLSITSLQTEDVSTYYCQQYWITPYTFGGGTKLEIK",no binding (tested: 20 nM (highest analyte concentration)),11.4 nM
"RXFP2 mAb 4A5 (antibody, V domains shown, heavy chain variable domain; rat IgG2b heavy chain constant region (rat IgG2b backbone, in-house construct); Recombinant in a rat IgG2b backbone; found as a mouse hybridoma clone; source: Expi293, transfected, purified (Protein G)) VH: DVQLVESGGGLVQPGGSRKLSCAASGFTFSTFGMHWVRQAPEKGLEWVAYISSGSSTIYYADTVKGRFTISRDNPKNTLFLQMTSLRSDDTAMYYCSRSYYGSAHYFDYWGQGTTLTVSS VL: DIQMTQSPASLSVSVGETVTITCRASENIYSNLAWYQQKQGKSPQLLVYVATNLADGVPSRFSGSGSGTQYSLRINNLQSEDFGNYYCQHFWGTPPTFGGGTKLEIK",no binding (tested: 20 nM (highest analyte concentration)),4.23 nM
"RXFP2 mAb 4B8 (antibody, V domains shown, heavy chain variable domain; rat IgG2b heavy chain constant region (rat IgG2b backbone, in-house construct); Recombinant in a rat IgG2b backbone; found as a mouse hybridoma clone; source: Expi293, transfected, purified (Protein G)) VH: QVQLKQSGPGLVQPSQSLSITCTVSGFSLSRYGVHWVRQSPGKGLEWLGVIWSGGSTEYNAVFKSRLSISKDNSKSQVFFKMNSLQANDTAIYYCVRADGYYAMEYWGQGTSVTVSS VL: DIQMTQSPASLSVSVGETVTITCRASENIYSNLAWYQQKQGKSPQLLVYAVTNLADGVPSRFSGSGSGTQYSLKINSLQSEDFGNYYCQHFWGTPYTFGGGTKLEIK",no binding (tested: 20 nM (highest analyte concentration)),0.55 nM
"RXFP2 mAb 2D4 (antibody, V domains shown, heavy chain variable domain; rat IgG2b heavy chain constant region (rat IgG2b backbone, in-house construct); Recombinant in a rat IgG2b backbone; found as a mouse hybridoma clone; source: Expi293, transfected, purified (Protein G)) VH: QVQLKESGPGLVAPSQSLSITCTVSGFSLTTYGISWVRQPPGKGLEWLGVIWTGGGTNYNSALKSRLSISKDNSKSQVFLKMNSLQTDDTARYYCARTEGYYVMDYWGQGTSVTVSS VL: DIQMTQSPASLSVSVGETVTITCRASENIYSNLVWYQQKQGKSPQLLVYAATNLADGVPSRFSGSGSGTQYSLKINNLQSEDFGTYYCQHFWGPPWTFGGGTKLEIK",no binding (tested: 20 nM (highest analyte concentration)),0.52 nM
"RXFP2 mAb 3F1 (antibody, V domains shown, heavy chain variable domain; rat IgG2b heavy chain constant region (rat IgG2b backbone, in-house construct); Recombinant in a rat IgG2b backbone; found as a mouse hybridoma clone; source: Expi293, transfected, purified (Protein G)) VH: QVQLKESGPGLVAPSQSLSITCTVSGFSLTDYGVSWIRQPPGKGLEWLGVIWGGGSTDYNPALKSRLSISKDNSKSQVFLKMNSLQADDTAMYYCVKHEGYYAMDYWGQGTSVTVSS VL: DIQMTQSPASLSVSVGETVTITCRASENIYSNLAWYQQKQGKSPHLLVYAVTNLADGVPSRFSGSGSGTQYSLKINSLQSEDFGSYYCQHFWGTPYTFGGGTKLEIK",no binding (tested: 20 nM (highest analyte concentration)),1.24 nM
"RXFP2 mAb 3G4 (antibody, V domains shown, heavy chain variable domain; rat IgG2b heavy chain constant region (rat IgG2b backbone, in-house construct); Recombinant in a rat IgG2b backbone; found as a mouse hybridoma clone; source: Expi293, transfected, purified (Protein G)) VH: QVQLKESGPGLVAPSQSLSITCTVSGFSLTSYGVSWVRQPPGKGLEWLGVIWGDGSTNYHSALISRLSISKDNSKSQVFLKLNSLQTDDTATYYCAKSLGYYAMDYWGQGTSVTVSS VL: DIQMTQSPASLSVSVGETVTITCRASENIYSNLVWYQQKQGKSPQLLVYAATNLAEGVPSRFSGSGSGTQYSLKINSLQSEDFGSYYCQHFWGPPWTFGGGTKLEIK",no binding (tested: 20 nM (highest analyte concentration)),2.07 nM
"RXFP2 mAb 3H1 (antibody, V domains shown, heavy chain variable domain; rat IgG2b heavy chain constant region (rat IgG2b backbone, in-house construct); Recombinant in a rat IgG2b backbone; found as a mouse hybridoma clone; source: Expi293, transfected, purified (Protein G)) VH: QVQLKETGPGLVAPSQSLSITCTVSGFSLTNYGVNWVRQPPGKGLEWLVVIWSDGSTNYNSALKSRLSISKDNSKSQVFLKMNSLQTDDTAMYYCARQQGYYAMDYWGQGTSVIVSS VL: DIQMTQSPASLSVSVGETVTITCRASENIYSNLAWYQQKQGKSPQLLVYAVTNLADGVPSRFSGSGSGTQYSLKINSLQSEDFGSYYCQHFWGPPYTFGGGTKLEIK",no binding (tested: 20 nM (highest analyte concentration)),1.89 nM
"RXFP2 mAb 4G7 (antibody, V domains shown, heavy chain variable domain; rat IgG2b heavy chain constant region (rat IgG2b backbone, in-house construct); Recombinant in a rat IgG2b backbone; found as a mouse hybridoma clone; source: Expi293, transfected, purified (Protein G)) VH: EVKLVESGGGLVQPGASLRLSCATSGFTFTDYYMSWVRQPPGKALEWLGFIRNKATGYTTEYSASVKGRFTISRDNSQSILYLQMNTLRAEDSATYYCARDLYYGDWYFDVWGAGTTVTVSS VL: not shown",no binding (tested: 20 nM (highest analyte concentration)),
"RXFP2 mAb 2H3 (antibody, V domains shown, heavy chain variable domain; rat IgG2b heavy chain constant region (rat IgG2b backbone, in-house construct); Recombinant in a rat IgG2b backbone; found as a mouse hybridoma clone; source: Expi293, transfected, purified (Protein G)) VH: QVTLKESGPGILQPSQTLSLTCSFSGFSLSTSGMSVGWIRQPSGKGLEWLAHIWWNDDKYYNPALKSRLTISKDTSNNQVFLKIASVVTADTATYYCARIGYYDGSPHAMDYWGQGTSVTVSS VL: not shown",no binding (tested: 20 nM (highest analyte concentration)),
